Measurements taken from article PMC7992120 (2018).

Biological target: linearized DAKD (N-methyl F6) (Homo sapiens, backbone amide N-methylation at F6 of peptide)
Assay: radioligand competition binding

B1: B1 bradykinin receptor (B1R) (protein)
chain: MASSWPPLELQSSNQSQLFPQNATACDNAPEAWDLLHRVLPTFIISICFFGLLGNLFVLLVFLLPRRQLNVAEIYLANLAASDLVFVLGLPFWAENIWNQFNWPFGALLCRVINGVIKANLFISIFLVVAISQDRYRVLVHPMASRRQQRRRQARVTCVLIWVVGGLLSIPTFLLRSIQAVPDLNITACILLLPHEAWHFARIVELNILGFLLPLAAIVFFNYHILASLRTREEVSRTRCGGRKDSKTTALILTLVVAFLVCWAPYHFFAFLEFLFQVQAVRGCFWEDFIDLGLQLANFFAFTNSSLNPVIYVFVGRLFRTKVWELYKQCTPKSLAPISSSHRKEIFQLFWRN
Work on B1 yielded a Ki of 2030 nM.
